Assay results from patent publication US20240116985A1 (published 2024).
Starred links: 1 amine or outer side, 2 acyl side, 3 side chain; linkers in the order of their positions; H or OH if unused. Positions of bridges follow the written chain, without caps; N, C: chain ends. Non-standard residues stand in square brackets, D forms with d. Primed or numbered codes have the meaning given here. PyrS2″ = (S)-3-amino-1-((pent-4-en-1-yloxy)carbonyl)pyrrolidine-3-carboxylic acid (stapling residue), C=CCCCOC(=O)N1CC[C@@](N[*:1])(C(=O)[*:2])C1; B5(4) = 2,2-bis(4-pentenyl)glycine = 2-amino-2-(pent-4-en-1-yl)hept-6-enoic acid (stitching residue), C=CCCCC(CCCC=C)(N[*:1])C(=O)[*:2]; Phe(2-Cl) = N[C@@H](Cc1ccccc1Cl)C(=O)O; Bta = N[C@@H](Cc1csc2ccccc12)C(=O)O; αAllylPro = C=CC[C@@]1(C(=O)O)CCCN1; tBuAla = CC(C)(C)C[C@H](N)C(=O)O; 3Thi = N[C@@H](Cc1ccsc1)C(=O)O; Thr(ol) = C[C@@H](O)[C@H](N)CO; TfeGA″ = not defined here

T1: B-cat-Halo (UniProt P35222 1-781)
T1 sequence (looked up): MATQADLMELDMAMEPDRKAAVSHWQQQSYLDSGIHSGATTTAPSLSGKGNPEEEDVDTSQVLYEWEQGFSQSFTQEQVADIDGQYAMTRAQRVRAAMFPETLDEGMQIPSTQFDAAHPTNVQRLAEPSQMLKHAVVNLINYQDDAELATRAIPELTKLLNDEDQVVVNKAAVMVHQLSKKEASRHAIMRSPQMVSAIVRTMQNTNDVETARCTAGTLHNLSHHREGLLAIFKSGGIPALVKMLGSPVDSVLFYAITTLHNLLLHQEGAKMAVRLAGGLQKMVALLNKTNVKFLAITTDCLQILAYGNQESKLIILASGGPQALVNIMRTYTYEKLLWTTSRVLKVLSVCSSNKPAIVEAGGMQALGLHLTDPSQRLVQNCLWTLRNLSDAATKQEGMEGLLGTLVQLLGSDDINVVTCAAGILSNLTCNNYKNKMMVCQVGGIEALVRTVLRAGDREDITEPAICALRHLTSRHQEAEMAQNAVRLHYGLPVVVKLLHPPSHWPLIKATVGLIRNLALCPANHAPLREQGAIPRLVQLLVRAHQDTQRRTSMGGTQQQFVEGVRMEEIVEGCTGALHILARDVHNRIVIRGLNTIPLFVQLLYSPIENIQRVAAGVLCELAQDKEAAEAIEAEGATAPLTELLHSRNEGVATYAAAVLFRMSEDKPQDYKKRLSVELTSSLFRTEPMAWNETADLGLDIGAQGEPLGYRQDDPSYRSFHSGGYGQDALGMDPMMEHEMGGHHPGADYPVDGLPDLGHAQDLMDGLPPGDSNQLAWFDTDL

T2: beta-catenin in DLD1 TCF/LEF luciferase reporter cells (UniProt P35222 1-781)
T2 sequence (looked up): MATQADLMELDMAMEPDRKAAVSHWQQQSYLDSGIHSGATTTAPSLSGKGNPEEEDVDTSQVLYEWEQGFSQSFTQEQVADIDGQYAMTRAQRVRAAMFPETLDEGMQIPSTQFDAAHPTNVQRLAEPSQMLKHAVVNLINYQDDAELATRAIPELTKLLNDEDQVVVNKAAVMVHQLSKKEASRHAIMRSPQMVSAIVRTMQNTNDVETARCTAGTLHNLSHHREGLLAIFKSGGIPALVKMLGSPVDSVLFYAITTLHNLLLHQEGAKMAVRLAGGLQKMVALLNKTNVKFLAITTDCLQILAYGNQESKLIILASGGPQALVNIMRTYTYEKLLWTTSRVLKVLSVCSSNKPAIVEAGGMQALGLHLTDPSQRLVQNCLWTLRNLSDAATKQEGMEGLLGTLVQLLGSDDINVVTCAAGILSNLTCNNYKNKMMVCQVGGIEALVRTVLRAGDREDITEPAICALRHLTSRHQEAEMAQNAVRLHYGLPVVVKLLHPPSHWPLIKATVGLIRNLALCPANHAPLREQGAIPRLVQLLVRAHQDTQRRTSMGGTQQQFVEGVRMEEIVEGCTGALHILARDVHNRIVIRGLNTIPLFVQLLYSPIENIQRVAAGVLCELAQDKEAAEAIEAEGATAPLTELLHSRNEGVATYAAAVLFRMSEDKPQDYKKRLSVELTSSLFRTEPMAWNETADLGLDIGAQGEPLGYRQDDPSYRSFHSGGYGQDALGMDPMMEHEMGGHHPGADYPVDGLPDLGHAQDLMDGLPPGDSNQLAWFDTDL

T3: beta-catenin in DLD1 TCF/LEF luciferase reporter cells (Homo sapiens (Human), UniProt P35222 1-781)
T3 sequence: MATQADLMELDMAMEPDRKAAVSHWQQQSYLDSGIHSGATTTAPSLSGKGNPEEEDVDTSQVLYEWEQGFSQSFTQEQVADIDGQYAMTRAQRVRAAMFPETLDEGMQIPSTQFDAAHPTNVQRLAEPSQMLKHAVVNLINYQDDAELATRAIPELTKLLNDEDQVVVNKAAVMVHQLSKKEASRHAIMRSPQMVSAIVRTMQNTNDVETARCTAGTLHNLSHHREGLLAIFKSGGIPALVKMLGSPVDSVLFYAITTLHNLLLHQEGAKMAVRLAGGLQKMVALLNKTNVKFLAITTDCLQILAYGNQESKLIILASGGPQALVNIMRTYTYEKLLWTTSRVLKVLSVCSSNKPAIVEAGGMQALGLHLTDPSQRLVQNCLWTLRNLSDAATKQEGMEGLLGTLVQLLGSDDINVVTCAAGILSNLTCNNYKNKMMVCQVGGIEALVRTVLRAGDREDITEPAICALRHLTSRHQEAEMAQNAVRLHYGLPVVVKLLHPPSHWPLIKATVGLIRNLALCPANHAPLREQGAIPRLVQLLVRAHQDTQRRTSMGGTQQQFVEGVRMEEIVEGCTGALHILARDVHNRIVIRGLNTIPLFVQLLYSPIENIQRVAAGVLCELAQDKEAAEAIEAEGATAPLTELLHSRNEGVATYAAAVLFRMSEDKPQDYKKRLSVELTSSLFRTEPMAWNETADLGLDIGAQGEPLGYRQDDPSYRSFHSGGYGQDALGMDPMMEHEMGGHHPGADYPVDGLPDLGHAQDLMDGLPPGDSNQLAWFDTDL


Experiments:
Test in all cases: cell-based or functional assay
B-cat-Halo = target: T1, B-cat-Halo
[1] = target: T2, beta-catenin in DLD1 TCF/LEF luciferase …
[2] = target: T3, beta-catenin in DLD1 TCF/LEF luciferase …

Row | NanoBRET Abs IC50 (B-cat-Halo) [µM] | DLD1 4% Abs IC50 [1] [µM] | DLD1 4% Abs IC50 [2] [µM] | Binder
1 | 4.8 | 2.7 | – | Ac-[αAllylPro]D[tBuAla][B5(4)]D[TfeGA″]AAFL[PyrS2″][3Thi][Bta]T-NH2 (staple 1-4, 4-11; reading uncertain) [I-1706]
2 | – | – | 15.9 | Ac-[αAllylPro]D[tBuAla][B5(4)]DDAAFT[PyrS2″][Phe(2-Cl)][Bta]S-NHEt (staple 1-4, 4-11) [I-1244]
3 | – | – | 4.1 | Ac-[αAllylPro]D[tBuAla][B5(4)]DDAAFT[PyrS2″][Phe(2-Cl)][Bta][Thr(ol)] (staple 1-4, 4-11) [I-1245]
